Assay results: PMC5389901

Target: INSM1 ZF4-5 (Homo sapiens, UniProt Q01101 424-497)
Test: ITC

Chain of INSM1 ZF4-5 (Q01101 424-497): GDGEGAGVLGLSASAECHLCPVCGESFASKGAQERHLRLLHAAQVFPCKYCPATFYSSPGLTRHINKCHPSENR

B1: INSM1 consensus dsDNA (dsDNA)
DNA 1: TGTCAGGGGGCA
DNA 2: TGCCCCCTGACA
Question: How did the Kd turn out when B1 was run?
Answer: 21.8 µM
